Test [1] has as its target T1, endogenous wild-type PLB of rat cardiac myocytes (rat, UniProt P61016 1-52).
T1 sequence (looked up): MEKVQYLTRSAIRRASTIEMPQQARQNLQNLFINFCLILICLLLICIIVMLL
Kind of test: cell-based or functional assay.

Test [2] addresses T2, sense PLB (wild-type phospholamban) expressed from a recombinant adenovirus (human, UniProt P26678 1-52).
T2 construct: ID; PLB exists as pentamer and monomer; also called sPLB; wild-type PLB
T2 sequence: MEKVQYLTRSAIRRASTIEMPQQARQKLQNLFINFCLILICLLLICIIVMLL
As to the kind of experiment: Western blot of Sol8 cells co-infected with sPLB and K3E/R14E; bands read as heteropentamer. (In general: A western blot detects proteins with antibodies after separation by electrophoresis.)

The values below come from patent US20040121942A1 (University of California, published 2004).

B1: K3E/R14E double point mutation of PLB expressed from a recombinant adenovirus (other)
chain: MEEVQYLTRSAIREASTIEMPQQARQKLQNLFINFCLILICLLLICIIVMLL
notes: ID
Consider B1, for which the “lowering of the EC50 of Ca2+ for SR Ca2+ uptake, adult rat myocytes” value in test [1] was found to be 36%. In test [2], the binding result is “binds”.
